Molecular target: T1, full-length human KDR on CHO-KDR cells (human, UniProt P35968 20-1356)
T1 construct: whole, on cells; stably transfected CHO-K1 cells
Assay: flow cytometry on CHO-KDR cells, His6-tagged protein, anti-His6 MAb and Alexa Fluor 488 anti-mouse antibody
Description: Binding of fibronectin-based scaffold protein to cell-surface KDR and Flk-1 was analyzed simultaneously on VEGF-R2-expressing and control cells by flow cytometry. CHO-pcDNA3 cells (control) were released from their dishes with trypsin-EDTA, washed in Dulbecco's PBS without calcium and magnesium (D-PBS⁻; Invitrogen), and stained for 30 minutes at 37° C. with 1.5 μM CMTMR (5-(and-6)-(((4-chloromethyl)benzoyl)amino)-tetramethylrhodamine) (Molecular Probes). The cells were washed in D-PBS⁻ and incubated for a further 30 minutes at 37° C., and then resuspended in blocking buffer (D-PBS710% fetal bovine serum) on ice. CHO-KDR or CHO-Flk cells were treated identically except that CMTMR was omitted. […] For cells treated with an anti-KDR mouse monoclonal antibody (Accurate Chemical, Westbury, N.Y.) or an anti-flk-1 goat polyclonal antibody (R&D Systems), the anti-His₆ step was omitted, and antibody binding was detected with the species-appropriate Alexa Fluor 488 conjugated secondary antibody (Molecular Probes). Following staining, cells were resuspended in 200 μl/well D-PBS⁻/1% FBS/1 μg/ml 7-aminoactinomycin D (7-AAD; Molecular Probes) and analyzed by flow cytometry on a FACSCalibur (Becton Dickinson, San Jose, Calif.) equipped with a […]. […]

T1 sequence (P35968 20-1356): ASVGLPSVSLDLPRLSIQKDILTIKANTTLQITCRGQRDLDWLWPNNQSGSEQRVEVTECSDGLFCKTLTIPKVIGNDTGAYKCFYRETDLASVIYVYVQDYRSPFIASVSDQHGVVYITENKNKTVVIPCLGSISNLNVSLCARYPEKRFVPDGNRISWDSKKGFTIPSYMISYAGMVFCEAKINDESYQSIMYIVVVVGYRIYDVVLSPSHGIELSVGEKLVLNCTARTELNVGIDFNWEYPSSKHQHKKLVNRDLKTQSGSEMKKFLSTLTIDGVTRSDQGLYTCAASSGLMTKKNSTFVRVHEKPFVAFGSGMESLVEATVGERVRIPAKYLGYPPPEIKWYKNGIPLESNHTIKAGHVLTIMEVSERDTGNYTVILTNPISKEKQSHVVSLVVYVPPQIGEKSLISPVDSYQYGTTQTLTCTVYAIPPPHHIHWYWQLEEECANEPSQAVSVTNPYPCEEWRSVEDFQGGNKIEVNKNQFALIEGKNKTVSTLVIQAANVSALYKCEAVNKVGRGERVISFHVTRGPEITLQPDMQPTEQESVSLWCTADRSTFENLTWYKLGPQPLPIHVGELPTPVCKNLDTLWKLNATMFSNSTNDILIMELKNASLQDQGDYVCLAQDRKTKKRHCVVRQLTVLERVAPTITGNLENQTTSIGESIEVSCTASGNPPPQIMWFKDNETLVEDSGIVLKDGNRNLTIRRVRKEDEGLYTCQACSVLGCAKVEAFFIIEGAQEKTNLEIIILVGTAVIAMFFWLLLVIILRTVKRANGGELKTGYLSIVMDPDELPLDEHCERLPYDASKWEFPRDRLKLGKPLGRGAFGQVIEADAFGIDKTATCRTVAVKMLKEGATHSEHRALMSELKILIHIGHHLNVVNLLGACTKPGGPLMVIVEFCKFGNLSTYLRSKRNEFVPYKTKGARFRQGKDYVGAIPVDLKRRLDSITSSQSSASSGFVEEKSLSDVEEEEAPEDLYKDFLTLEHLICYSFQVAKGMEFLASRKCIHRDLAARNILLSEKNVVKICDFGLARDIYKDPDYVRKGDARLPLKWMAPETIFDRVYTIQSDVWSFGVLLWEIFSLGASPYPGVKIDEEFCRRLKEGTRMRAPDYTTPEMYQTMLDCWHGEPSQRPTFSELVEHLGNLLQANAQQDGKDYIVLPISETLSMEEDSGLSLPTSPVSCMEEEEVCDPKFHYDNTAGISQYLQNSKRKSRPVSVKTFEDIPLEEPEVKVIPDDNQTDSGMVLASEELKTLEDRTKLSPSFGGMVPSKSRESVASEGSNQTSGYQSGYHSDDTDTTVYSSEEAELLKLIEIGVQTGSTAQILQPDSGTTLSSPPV

B1: WT fibronectin-based scaffold protein (wild-type 10Fn3), E. coli, His6 (other)
chain: VSDVPRDLEVVAATPTSLLISWDAPAVTVRYYRITYGETGGNSPVQEFTVPGSKSTATISGLKPGVDYTITGYAVTGRGDSPASSKPISINYRTEIDKPSQHHHHHH
notes: E. coli-expressed soluble form; N-terminal Met not described
  binding result: no binding (tested: log[M] about -6.9 (about 1e-7 M))
